B1: Speckle-type POZ protein (Homo sapiens), O43791 (parent)
chain: MSRVPSPPPPAEMSSGPVAESWCYTQIKVVKFSYMWTINNFSFCREEMGEVIKSSTFSSGANDKLKWCLRVNPKGLDEESKDYLSLYLLLVSCPKSEVRAKFKFSILNAKGEETKAMESQRAYRFVQGKDWGFKKFIRRDFLLDEANGLLPDDKLTLFCEVSVVQDSVNISGQNTMNMVKVPECRLADELGGLWENSRFTDCCLCVAGQEFQAHKAILAARSPVFSAMFEHEMEESKKNRVEINDVEPEVFKEMMCFIYTGKAPNLDKMADDLLAAADKYALERLKVMCEDALCSNLSVENAAEILILADLHSADQLKTQAVDFINYHASDVLETSGWKSMVVSHPHLVAEAYRSLASAQCPFLGPPRKRLKQS

Variants of: B1
Conditions: with brd4_human BRD4, O60885

Row | Variant | effect of a mutation on the interaction
1 | Y87C | disrupting interaction strength

Variants of: B1
Conditions: with ncoa3_human NCOA3, Q9Y6Q9
Chain of ncoa3_human NCOA3, Q9Y6Q9 (Q9Y6Q9 whole entry, looked up): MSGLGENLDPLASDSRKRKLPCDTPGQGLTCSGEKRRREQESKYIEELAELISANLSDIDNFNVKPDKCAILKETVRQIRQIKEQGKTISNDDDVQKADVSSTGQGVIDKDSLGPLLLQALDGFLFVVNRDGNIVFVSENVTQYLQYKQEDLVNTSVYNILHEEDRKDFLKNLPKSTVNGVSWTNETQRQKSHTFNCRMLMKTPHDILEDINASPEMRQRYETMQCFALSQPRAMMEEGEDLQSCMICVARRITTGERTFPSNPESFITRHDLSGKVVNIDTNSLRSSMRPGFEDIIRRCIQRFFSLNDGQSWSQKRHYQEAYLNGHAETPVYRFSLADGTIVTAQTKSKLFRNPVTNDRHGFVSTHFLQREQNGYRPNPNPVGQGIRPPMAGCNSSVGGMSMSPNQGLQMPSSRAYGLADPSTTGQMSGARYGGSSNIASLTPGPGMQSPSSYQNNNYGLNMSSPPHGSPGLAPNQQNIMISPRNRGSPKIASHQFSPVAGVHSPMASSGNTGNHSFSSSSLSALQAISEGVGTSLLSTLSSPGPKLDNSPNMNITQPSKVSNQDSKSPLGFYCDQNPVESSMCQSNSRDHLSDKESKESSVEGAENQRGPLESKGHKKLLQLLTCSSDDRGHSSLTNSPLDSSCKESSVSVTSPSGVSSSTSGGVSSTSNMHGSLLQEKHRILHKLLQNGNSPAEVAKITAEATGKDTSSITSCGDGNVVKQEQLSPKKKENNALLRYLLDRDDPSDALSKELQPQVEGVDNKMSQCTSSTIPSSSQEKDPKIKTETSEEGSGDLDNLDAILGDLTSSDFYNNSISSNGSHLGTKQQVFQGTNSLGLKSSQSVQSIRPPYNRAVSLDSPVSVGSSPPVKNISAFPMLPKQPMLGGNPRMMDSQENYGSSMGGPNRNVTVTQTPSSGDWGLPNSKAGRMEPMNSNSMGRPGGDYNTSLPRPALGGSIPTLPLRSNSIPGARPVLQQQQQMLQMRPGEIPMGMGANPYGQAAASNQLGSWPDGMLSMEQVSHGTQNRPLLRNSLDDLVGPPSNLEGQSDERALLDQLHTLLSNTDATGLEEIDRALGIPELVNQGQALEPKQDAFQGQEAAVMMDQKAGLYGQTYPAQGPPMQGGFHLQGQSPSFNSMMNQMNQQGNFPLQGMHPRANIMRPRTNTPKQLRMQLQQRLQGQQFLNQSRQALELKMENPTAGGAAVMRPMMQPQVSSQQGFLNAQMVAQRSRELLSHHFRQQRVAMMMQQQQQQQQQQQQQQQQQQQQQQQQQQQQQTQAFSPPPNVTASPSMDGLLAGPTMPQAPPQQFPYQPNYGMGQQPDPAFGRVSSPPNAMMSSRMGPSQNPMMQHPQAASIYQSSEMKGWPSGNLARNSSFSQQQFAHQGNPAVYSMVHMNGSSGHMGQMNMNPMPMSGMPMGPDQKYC

Row | Variant | effect of a mutation on the interaction
2 | Y87C | disrupting interaction strength

Variants of: B1
Conditions: with jun_human JUN

Row | Variant | effect of a mutation on the interaction
3 | Y87C | disrupting interaction strength

Variants of: B1
Conditions: with akt1_human AKT1, P31749

Row | Variant | effect of a mutation on the interaction
4 | Y87C | with no effect

Variants of: B1
Conditions: with alk_human ALK

Row | Variant | effect of a mutation on the interaction
5 | Y87C | with no effect

Variants of: B1
Conditions: with aph1a_human APH1A

Row | Variant | effect of a mutation on the interaction
6 | Y87C | with no effect

Variants of: B1
Conditions: with arnt_human ARNT

Row | Variant | effect of a mutation on the interaction
7 | Y87C | with no effect

Variants of: B1
Conditions: with arc1a_human ARPC1A

Row | Variant | effect of a mutation on the interaction
8 | Y87C | with no effect

Variants of: B1
Conditions: with asxl2_human ASXL2, Q76L83

Row | Variant | effect of a mutation on the interaction
9 | Y87C | with no effect

Variants of: B1
Conditions: with bakor_human ATG14, Q6ZNE5
Chain of bakor_human ATG14, Q6ZNE5 (Q6ZNE5 whole entry): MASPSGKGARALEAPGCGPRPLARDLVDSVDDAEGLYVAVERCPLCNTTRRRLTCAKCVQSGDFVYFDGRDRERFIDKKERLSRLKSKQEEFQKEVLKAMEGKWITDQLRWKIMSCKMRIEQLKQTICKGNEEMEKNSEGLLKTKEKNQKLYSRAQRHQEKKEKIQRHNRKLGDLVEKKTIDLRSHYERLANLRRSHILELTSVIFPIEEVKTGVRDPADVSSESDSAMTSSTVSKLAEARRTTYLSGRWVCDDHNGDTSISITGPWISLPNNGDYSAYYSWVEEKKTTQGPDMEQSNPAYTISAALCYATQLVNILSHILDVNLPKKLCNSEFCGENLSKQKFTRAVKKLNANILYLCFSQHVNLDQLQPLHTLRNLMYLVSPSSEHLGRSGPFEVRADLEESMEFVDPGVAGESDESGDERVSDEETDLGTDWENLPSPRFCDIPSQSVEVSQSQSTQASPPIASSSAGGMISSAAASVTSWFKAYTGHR

Row | Variant | effect of a mutation on the interaction
10 | Y87C | with no effect

Variants of: B1
Conditions: with atm_human ATM

Row | Variant | effect of a mutation on the interaction
11 | Y87C | with no effect

Variants of: B1
Conditions: with atpb_human ATP5F1B

Row | Variant | effect of a mutation on the interaction
12 | Y87C | with no effect

Variants of: B1
Conditions: with aurkb_human AURKB

Row | Variant | effect of a mutation on the interaction
13 | Y87C | with no effect

Variants of: B1
Conditions: with axin2_human AXIN2, Q9Y2T1
Chain of axin2_human AXIN2, Q9Y2T1 (Q9Y2T1 whole entry): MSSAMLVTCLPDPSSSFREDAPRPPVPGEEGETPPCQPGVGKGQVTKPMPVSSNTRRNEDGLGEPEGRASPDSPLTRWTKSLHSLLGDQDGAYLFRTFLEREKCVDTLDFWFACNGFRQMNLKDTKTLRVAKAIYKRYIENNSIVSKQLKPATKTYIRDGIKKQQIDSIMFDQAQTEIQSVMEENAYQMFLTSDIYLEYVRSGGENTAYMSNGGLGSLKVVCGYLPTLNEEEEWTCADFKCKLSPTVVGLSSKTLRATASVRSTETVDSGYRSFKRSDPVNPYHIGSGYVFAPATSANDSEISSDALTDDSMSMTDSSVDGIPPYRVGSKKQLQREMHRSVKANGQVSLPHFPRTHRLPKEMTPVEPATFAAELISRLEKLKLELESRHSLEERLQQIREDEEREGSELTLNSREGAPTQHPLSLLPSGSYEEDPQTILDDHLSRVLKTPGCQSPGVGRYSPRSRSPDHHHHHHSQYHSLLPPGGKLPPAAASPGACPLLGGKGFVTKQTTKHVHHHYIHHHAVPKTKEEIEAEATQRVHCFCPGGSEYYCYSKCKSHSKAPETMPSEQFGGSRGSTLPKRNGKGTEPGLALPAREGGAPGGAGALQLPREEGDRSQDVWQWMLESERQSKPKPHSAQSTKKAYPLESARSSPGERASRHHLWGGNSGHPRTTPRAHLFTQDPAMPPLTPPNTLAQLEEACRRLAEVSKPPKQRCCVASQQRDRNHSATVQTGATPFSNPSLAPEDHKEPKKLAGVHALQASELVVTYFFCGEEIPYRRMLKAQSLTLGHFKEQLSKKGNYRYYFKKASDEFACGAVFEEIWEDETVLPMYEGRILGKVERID

Row | Variant | effect of a mutation on the interaction
14 | Y87C | with no effect

Variants of: B1
Conditions: with ufo_human AXL

Row | Variant | effect of a mutation on the interaction
15 | Y87C | with no effect

Variants of: B1
Conditions: with za2g_human AZGP1, P25311

Row | Variant | effect of a mutation on the interaction
16 | Y87C | with no effect

Variants of: B1
Conditions: with b2mg_human B2M

Row | Variant | effect of a mutation on the interaction
17 | Y87C | with no effect

Variants of: B1
Conditions: with bap1_human BAP1, Q92560

Row | Variant | effect of a mutation on the interaction
18 | Y87C | with no effect

Variants of: B1
Conditions: with bcor_human BCOR

Row | Variant | effect of a mutation on the interaction
19 | Y87C | with no effect

Variants of: B1
Conditions: with bcorl_human BCORL1, Q5H9F3

Row | Variant | effect of a mutation on the interaction
20 | Y87C | with no effect

Variants of: B1
Conditions: with birc2_human BIRC2, Q13490
Chain of birc2_human BIRC2, Q13490 (Q13490 whole entry): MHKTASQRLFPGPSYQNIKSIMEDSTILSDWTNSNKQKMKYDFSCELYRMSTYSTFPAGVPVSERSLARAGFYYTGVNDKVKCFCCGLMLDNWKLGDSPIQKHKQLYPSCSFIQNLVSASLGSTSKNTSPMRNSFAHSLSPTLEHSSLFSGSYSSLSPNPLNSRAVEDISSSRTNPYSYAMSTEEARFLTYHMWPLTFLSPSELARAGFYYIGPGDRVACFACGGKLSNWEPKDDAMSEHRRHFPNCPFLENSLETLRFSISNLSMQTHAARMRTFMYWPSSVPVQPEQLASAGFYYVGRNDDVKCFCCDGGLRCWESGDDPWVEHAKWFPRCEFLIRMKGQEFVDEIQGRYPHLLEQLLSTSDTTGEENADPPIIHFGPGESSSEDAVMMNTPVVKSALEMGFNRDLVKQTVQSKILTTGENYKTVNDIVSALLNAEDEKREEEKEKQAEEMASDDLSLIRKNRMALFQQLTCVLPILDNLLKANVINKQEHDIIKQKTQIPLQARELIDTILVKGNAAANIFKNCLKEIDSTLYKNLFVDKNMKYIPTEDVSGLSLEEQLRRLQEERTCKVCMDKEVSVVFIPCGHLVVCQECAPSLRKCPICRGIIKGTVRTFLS

Row | Variant | effect of a mutation on the interaction
21 | Y87C | with no effect

Variants of: B1
Conditions: with brd4_human BRD4, O60885
Remark: another data set of the same source

Row | Variant | effect of a mutation on the interaction
22 | Y87C | with no effect

Variants of: B1
Conditions: with baba2_human BABAM2, Q9NXR7
Chain of baba2_human BABAM2, Q9NXR7 (Q9NXR7 whole entry): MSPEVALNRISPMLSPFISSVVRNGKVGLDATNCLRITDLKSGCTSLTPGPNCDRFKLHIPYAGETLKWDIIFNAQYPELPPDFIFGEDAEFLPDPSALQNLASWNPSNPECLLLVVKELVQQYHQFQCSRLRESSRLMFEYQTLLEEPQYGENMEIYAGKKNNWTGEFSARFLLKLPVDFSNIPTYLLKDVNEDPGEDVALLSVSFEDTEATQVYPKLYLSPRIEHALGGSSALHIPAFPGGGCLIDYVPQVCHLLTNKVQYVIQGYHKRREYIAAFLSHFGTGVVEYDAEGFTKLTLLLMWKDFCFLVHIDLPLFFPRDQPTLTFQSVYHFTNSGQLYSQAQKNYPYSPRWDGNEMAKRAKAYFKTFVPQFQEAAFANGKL

Row | Variant | effect of a mutation on the interaction
23 | Y87C | with no effect

Variants of: B1
Conditions: with btg1_human BTG1, P62324
Chain of btg1_human BTG1, P62324 (P62324 whole entry): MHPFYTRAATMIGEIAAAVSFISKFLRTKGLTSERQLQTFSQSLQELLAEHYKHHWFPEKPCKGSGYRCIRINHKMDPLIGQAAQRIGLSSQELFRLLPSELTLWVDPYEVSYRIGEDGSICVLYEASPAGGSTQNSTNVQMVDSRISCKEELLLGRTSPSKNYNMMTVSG

Row | Variant | effect of a mutation on the interaction
24 | Y87C | with no effect

Variants of: B1
Conditions: with ccnd1_human CCND1, P24385
Chain of ccnd1_human CCND1, P24385 (P24385 whole entry): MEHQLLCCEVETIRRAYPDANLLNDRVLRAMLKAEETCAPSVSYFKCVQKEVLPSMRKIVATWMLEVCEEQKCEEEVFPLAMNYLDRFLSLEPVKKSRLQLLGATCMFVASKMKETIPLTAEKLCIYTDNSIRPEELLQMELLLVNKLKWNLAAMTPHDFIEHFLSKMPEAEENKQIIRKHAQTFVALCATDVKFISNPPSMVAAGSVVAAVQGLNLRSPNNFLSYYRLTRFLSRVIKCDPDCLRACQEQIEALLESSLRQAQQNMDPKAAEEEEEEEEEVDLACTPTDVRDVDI

Row | Variant | effect of a mutation on the interaction
25 | Y87C | with no effect

Variants of: B1
Conditions: with ccnd2_human CCND2, P30279

Row | Variant | effect of a mutation on the interaction
26 | Y87C | with no effect

Variants of: B1
Conditions: with ccnd3_human CCND3, P30281
Chain of ccnd3_human CCND3, P30281 (P30281 whole entry): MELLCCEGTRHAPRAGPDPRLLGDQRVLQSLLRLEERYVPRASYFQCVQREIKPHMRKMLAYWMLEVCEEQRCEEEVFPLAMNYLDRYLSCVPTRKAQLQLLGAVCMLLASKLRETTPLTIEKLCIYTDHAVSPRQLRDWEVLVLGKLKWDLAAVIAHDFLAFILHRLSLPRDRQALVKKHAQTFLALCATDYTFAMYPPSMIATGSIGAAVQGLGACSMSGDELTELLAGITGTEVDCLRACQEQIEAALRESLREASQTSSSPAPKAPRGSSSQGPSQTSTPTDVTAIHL

Row | Variant | effect of a mutation on the interaction
27 | Y87C | with no effect

Variants of: B1
Conditions: with ccne1_human CCNE1, P24864
Chain of ccne1_human CCNE1, P24864 (P24864 whole entry): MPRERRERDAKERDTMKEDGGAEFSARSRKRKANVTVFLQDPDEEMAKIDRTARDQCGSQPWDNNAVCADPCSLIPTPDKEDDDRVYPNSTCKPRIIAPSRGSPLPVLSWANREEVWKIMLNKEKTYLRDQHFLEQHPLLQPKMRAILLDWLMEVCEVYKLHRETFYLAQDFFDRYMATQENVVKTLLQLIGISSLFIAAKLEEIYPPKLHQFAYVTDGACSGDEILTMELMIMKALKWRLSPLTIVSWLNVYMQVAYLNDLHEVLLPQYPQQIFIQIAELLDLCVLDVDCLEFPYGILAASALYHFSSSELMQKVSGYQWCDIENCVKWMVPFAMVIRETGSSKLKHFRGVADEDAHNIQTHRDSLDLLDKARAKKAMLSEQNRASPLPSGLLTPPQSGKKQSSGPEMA

Row | Variant | effect of a mutation on the interaction
28 | Y87C | with no effect

Variants of: B1
Conditions: with cd44_human CD44, P16070

Row | Variant | effect of a mutation on the interaction
29 | Y87C | with no effect

Variants of: B1
Conditions: with cd79b_human CD79B

Row | Variant | effect of a mutation on the interaction
30 | Y87C | with no effect

Source: IntAct's records for PubMed 35512704
